Assay results: US20210179693A1 (Xencor, published 2021)

molecular target: T1, human FcRn (His-tagged alpha chain with beta 2 microglobulin) (human, UniProt P55899 24-297; P61769 21-119, limits assumed); experiment: Biacore, human FcRn on chip, pH 6.0
T1 construct: also called hFcRn; not shown: His tag
T1 sequence (P55899 24-297 limits assumed, chain 1 of 2): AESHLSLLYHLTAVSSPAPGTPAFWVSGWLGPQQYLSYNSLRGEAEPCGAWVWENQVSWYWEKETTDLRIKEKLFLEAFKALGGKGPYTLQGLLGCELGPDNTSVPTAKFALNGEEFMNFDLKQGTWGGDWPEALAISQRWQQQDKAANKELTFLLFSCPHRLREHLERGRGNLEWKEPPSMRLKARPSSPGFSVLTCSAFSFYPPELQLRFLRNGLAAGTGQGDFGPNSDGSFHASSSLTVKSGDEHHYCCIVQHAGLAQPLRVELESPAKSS
T1 sequence (P61769 21-119 limits assumed, chain 2 of 2): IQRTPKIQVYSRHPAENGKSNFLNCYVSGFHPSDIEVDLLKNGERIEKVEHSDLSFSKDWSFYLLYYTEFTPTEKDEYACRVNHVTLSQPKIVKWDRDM

| Binder | fold FcRn binding | fold FcRn binding relative to WT IgG2 | binding result |
| --- | --- | --- | --- |
| anti-VEGF IgG2 N434S (antibody) heavy: EVQLVESGGGLVQPGGSLRLSCAASGYTFTNYGMNWVRQAPGKGLEWVGWINTYTGEPTYAADFKRRFTFSLDTSKSTAYLQMNSLRAEDTAVYYCAKYPHYYGSSHWYFDVWGQGTLVTVSSASTKGPSVFPLAPCSRSTSESTAALGCLVKDYFPEPVTVSWNSGALTSGVHTFPAVLQSSGLYSLSSVVTVPSSNFGTQTYTCNVDHKPSNTKVDKTVERKCCVECPPCPAPPVAGPSVFLFPPKPKDTLMISRTPEVTCVVVDVSHEDPEVQFNWYVDGVEVHNAKTKPREEQFNSTFRVVSVLTVVHQDWLNGKEYKCKVSNKGLPAPIEKTISKTKGQPREPQVYTLPPSREEMTKNQVSLTCLVKGFYPSDIAVEWESNGQPENNYKTTPPMLDSDGSFFLYSKLTVDKSRWQQGNVFSCSVMHEALHSHYTQKSLSLSPGK light: not shown | 4.9 fold | – | – |
| anti-VEGF IgG2 M428L/N434S (antibody) heavy: EVQLVESGGGLVQPGGSLRLSCAASGYTFTNYGMNWVRQAPGKGLEWVGWINTYTGEPTYAADFKRRFTFSLDTSKSTAYLQMNSLRAEDTAVYYCAKYPHYYGSSHWYFDVWGQGTLVTVSSASTKGPSVFPLAPCSRSTSESTAALGCLVKDYFPEPVTVSWNSGALTSGVHTFPAVLQSSGLYSLSSVVTVPSSNFGTQTYTCNVDHKPSNTKVDKTVERKCCVECPPCPAPPVAGPSVFLFPPKPKDTLMISRTPEVTCVVVDVSHEDPEVQFNWYVDGVEVHNAKTKPREEQFNSTFRVVSVLTVVHQDWLNGKEYKCKVSNKGLPAPIEKTISKTKGQPREPQVYTLPPSREEMTKNQVSLTCLVKGFYPSDIAVEWESNGQPENNYKTTPPMLDSDGSFFLYSKLTVDKSRWQQGNVFSCSVLHEALHSHYTQKSLSLSPGK light: not shown | 14.8 fold | – | – |
| anti-VEGF IgG2 N434D (antibody) heavy: EVQLVESGGGLVQPGGSLRLSCAASGYTFTNYGMNWVRQAPGKGLEWVGWINTYTGEPTYAADFKRRFTFSLDTSKSTAYLQMNSLRAEDTAVYYCAKYPHYYGSSHWYFDVWGQGTLVTVSSASTKGPSVFPLAPCSRSTSESTAALGCLVKDYFPEPVTVSWNSGALTSGVHTFPAVLQSSGLYSLSSVVTVPSSNFGTQTYTCNVDHKPSNTKVDKTVERKCCVECPPCPAPPVAGPSVFLFPPKPKDTLMISRTPEVTCVVVDVSHEDPEVQFNWYVDGVEVHNAKTKPREEQFNSTFRVVSVLTVVHQDWLNGKEYKCKVSNKGLPAPIEKTISKTKGQPREPQVYTLPPSREEMTKNQVSLTCLVKGFYPSDIAVEWESNGQPENNYKTTPPMLDSDGSFFLYSKLTVDKSRWQQGNVFSCSVMHEALHDHYTQKSLSLSPGK light: not shown | – | < 0.5 fold | – |
| anti-VEGF IgG2 N434E (antibody) heavy: EVQLVESGGGLVQPGGSLRLSCAASGYTFTNYGMNWVRQAPGKGLEWVGWINTYTGEPTYAADFKRRFTFSLDTSKSTAYLQMNSLRAEDTAVYYCAKYPHYYGSSHWYFDVWGQGTLVTVSSASTKGPSVFPLAPCSRSTSESTAALGCLVKDYFPEPVTVSWNSGALTSGVHTFPAVLQSSGLYSLSSVVTVPSSNFGTQTYTCNVDHKPSNTKVDKTVERKCCVECPPCPAPPVAGPSVFLFPPKPKDTLMISRTPEVTCVVVDVSHEDPEVQFNWYVDGVEVHNAKTKPREEQFNSTFRVVSVLTVVHQDWLNGKEYKCKVSNKGLPAPIEKTISKTKGQPREPQVYTLPPSREEMTKNQVSLTCLVKGFYPSDIAVEWESNGQPENNYKTTPPMLDSDGSFFLYSKLTVDKSRWQQGNVFSCSVMHEALHEHYTQKSLSLSPGK light: not shown | – | < 0.5 fold | – |
| anti-VEGF IgG2 N434K (antibody) heavy: EVQLVESGGGLVQPGGSLRLSCAASGYTFTNYGMNWVRQAPGKGLEWVGWINTYTGEPTYAADFKRRFTFSLDTSKSTAYLQMNSLRAEDTAVYYCAKYPHYYGSSHWYFDVWGQGTLVTVSSASTKGPSVFPLAPCSRSTSESTAALGCLVKDYFPEPVTVSWNSGALTSGVHTFPAVLQSSGLYSLSSVVTVPSSNFGTQTYTCNVDHKPSNTKVDKTVERKCCVECPPCPAPPVAGPSVFLFPPKPKDTLMISRTPEVTCVVVDVSHEDPEVQFNWYVDGVEVHNAKTKPREEQFNSTFRVVSVLTVVHQDWLNGKEYKCKVSNKGLPAPIEKTISKTKGQPREPQVYTLPPSREEMTKNQVSLTCLVKGFYPSDIAVEWESNGQPENNYKTTPPMLDSDGSFFLYSKLTVDKSRWQQGNVFSCSVMHEALHKHYTQKSLSLSPGK light: not shown | – | < 0.5 fold | – |
| anti-VEGF IgG2 N434P (antibody) heavy: EVQLVESGGGLVQPGGSLRLSCAASGYTFTNYGMNWVRQAPGKGLEWVGWINTYTGEPTYAADFKRRFTFSLDTSKSTAYLQMNSLRAEDTAVYYCAKYPHYYGSSHWYFDVWGQGTLVTVSSASTKGPSVFPLAPCSRSTSESTAALGCLVKDYFPEPVTVSWNSGALTSGVHTFPAVLQSSGLYSLSSVVTVPSSNFGTQTYTCNVDHKPSNTKVDKTVERKCCVECPPCPAPPVAGPSVFLFPPKPKDTLMISRTPEVTCVVVDVSHEDPEVQFNWYVDGVEVHNAKTKPREEQFNSTFRVVSVLTVVHQDWLNGKEYKCKVSNKGLPAPIEKTISKTKGQPREPQVYTLPPSREEMTKNQVSLTCLVKGFYPSDIAVEWESNGQPENNYKTTPPMLDSDGSFFLYSKLTVDKSRWQQGNVFSCSVMHEALHPHYTQKSLSLSPGK light: not shown | – | < 0.5 fold | – |
| anti-VEGF IgG2 N434R (antibody) heavy: EVQLVESGGGLVQPGGSLRLSCAASGYTFTNYGMNWVRQAPGKGLEWVGWINTYTGEPTYAADFKRRFTFSLDTSKSTAYLQMNSLRAEDTAVYYCAKYPHYYGSSHWYFDVWGQGTLVTVSSASTKGPSVFPLAPCSRSTSESTAALGCLVKDYFPEPVTVSWNSGALTSGVHTFPAVLQSSGLYSLSSVVTVPSSNFGTQTYTCNVDHKPSNTKVDKTVERKCCVECPPCPAPPVAGPSVFLFPPKPKDTLMISRTPEVTCVVVDVSHEDPEVQFNWYVDGVEVHNAKTKPREEQFNSTFRVVSVLTVVHQDWLNGKEYKCKVSNKGLPAPIEKTISKTKGQPREPQVYTLPPSREEMTKNQVSLTCLVKGFYPSDIAVEWESNGQPENNYKTTPPMLDSDGSFFLYSKLTVDKSRWQQGNVFSCSVMHEALHRHYTQKSLSLSPGK light: not shown | – | < 0.5 fold | – |
| anti-VEGF IgG2 N434T (antibody) heavy: EVQLVESGGGLVQPGGSLRLSCAASGYTFTNYGMNWVRQAPGKGLEWVGWINTYTGEPTYAADFKRRFTFSLDTSKSTAYLQMNSLRAEDTAVYYCAKYPHYYGSSHWYFDVWGQGTLVTVSSASTKGPSVFPLAPCSRSTSESTAALGCLVKDYFPEPVTVSWNSGALTSGVHTFPAVLQSSGLYSLSSVVTVPSSNFGTQTYTCNVDHKPSNTKVDKTVERKCCVECPPCPAPPVAGPSVFLFPPKPKDTLMISRTPEVTCVVVDVSHEDPEVQFNWYVDGVEVHNAKTKPREEQFNSTFRVVSVLTVVHQDWLNGKEYKCKVSNKGLPAPIEKTISKTKGQPREPQVYTLPPSREEMTKNQVSLTCLVKGFYPSDIAVEWESNGQPENNYKTTPPMLDSDGSFFLYSKLTVDKSRWQQGNVFSCSVMHEALHTHYTQKSLSLSPGK light: not shown | – | – | binds |
| anti-VEGF IgG2 N434V (antibody, also called 434V in IgG2) heavy: EVQLVESGGGLVQPGGSLRLSCAASGYTFTNYGMNWVRQAPGKGLEWVGWINTYTGEPTYAADFKRRFTFSLDTSKSTAYLQMNSLRAEDTAVYYCAKYPHYYGSSHWYFDVWGQGTLVTVSSASTKGPSVFPLAPCSRSTSESTAALGCLVKDYFPEPVTVSWNSGALTSGVHTFPAVLQSSGLYSLSSVVTVPSSNFGTQTYTCNVDHKPSNTKVDKTVERKCCVECPPCPAPPVAGPSVFLFPPKPKDTLMISRTPEVTCVVVDVSHEDPEVQFNWYVDGVEVHNAKTKPREEQFNSTFRVVSVLTVVHQDWLNGKEYKCKVSNKGLPAPIEKTISKTKGQPREPQVYTLPPSREEMTKNQVSLTCLVKGFYPSDIAVEWESNGQPENNYKTTPPMLDSDGSFFLYSKLTVDKSRWQQGNVFSCSVMHEALHVHYTQKSLSLSPGK light: not shown | – | < 0.5 fold | – |
